Consider 50 sequences from the domain aggregation screens of Martell et al. (2025).

The nature of the data set: soluble fraction after stress (log2 fold change); higher = more stays soluble; pooled small domains, quantitative proteomics. The note with it: stress: pH 4. In a few lines:
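Following acid stress at pH 4, the amount of each small protein domain still soluble was measured in pooled custom libraries by high-throughput quantitative proteomics. Its fold change, on a log2 scale, is higher when more of the domain stayed soluble. This fold change is taken as a measure of aggregation propensity.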

Regarding “HMDSIDIDAETKSLGPNAPQIIKGIKEWGQGLVAKGVWSDQDFEEFKVFAATANGINALNKVRKFY”, the “soluble fraction (log2)” value was -0.192.

On to “HMDSIDVQQKKLLTDIELGNIEGIKLFLKRHNNTINFLTIKGFHPLVYAVRNNNMEIVNLFLTT”, for which the “soluble fraction (log2)” value was 0.159.

As to “HMDSIGTQIRKLREEAEMPLRKLSALLDIDQSTLSKIERDERRANTQMIEQIAKIFKVNKEQLLVA”, the “soluble fraction (log2)” value is -1.98.

Consider “HMDSKPNDLLFVYVSQLIRSLTLNSSKKDSELADELEVSISQIRIWLKKLINEQLIVKESKPVKYRWKG”, for which the “soluble fraction (log2)” value was -0.327.

Take “HMDSLARKTVNGAEFYIYPVESAEGFYSLRRKFGVSQEEVIKYNPSAQNGLKSGQVLLIPVT”: the “soluble fraction (log2)” value turned out to be 0.125.

For “HMDSLQDFAYEEIKKRIQNGEYAPGTKLNTQEISDSLGISRSPVLAAINRLIALGLVEATPRKGTTVA”, the “soluble fraction (log2)” value was -0.0359.

On to “HMDSLSGQQGRVLEEINGFLQTGKVLLNGMEWSAVSKQPEDILPVDTEVVVVRVEGAHLVVKKA”, for which the “soluble fraction (log2)” value is -0.488.

Consider “HMDSPRITMDQLRIGLYVYLDLTWFQHPFAFSHFKINSEDQIKTILGLGLKSVRYDPALSDPV”, for which the “soluble fraction (log2)” value is -0.645.

Consider “HMDSQSVFADLVKSLSQKIASIPVWFEYTKNEQYDLISSYVSAKLKDLGVEFSQEEKEKFITMFMNS”, for which the “soluble fraction (log2)” value was -0.34.

As for “HMDSRQIIAALQARYADETGITALKIKFNNVLGYFVDVPARYGDPLMKPPLSETFIHRQTLASNVRF”, the “soluble fraction (log2)” value is -0.0558.

For the sequence “HMDSSITLMRMYIPKGHNWENKLISDVSMPTNSLALMIKRNGTTIIPKGDTMILAKDTLILSVPSYEPS”, the “soluble fraction (log2)” value was -1.86.

On to “HMDSSNLSLIAGVGPTIEKKLRAAGITSWEQIAAWTEADVAKYDEELNLRGRITRDEWIEQAKELLAGKPP”, for which the “soluble fraction (log2)” value was 0.309.

Take “HMDSTLDLVATQGGRLDQVLAEMIPEHSRNRLQHWIKAGRVLVDGQPVLEPKHKIYGGEDLAVRVD”: the “soluble fraction (log2)” value amounted to 0.123.

In the case of “HMDSVSAVRTTHLNSYVLLLEKDGMAAATISRYIASMKGFFEYLFREHMIEEDPAFTLKPPKV”, the “soluble fraction (log2)” value was 0.0461.

As to “HMDSVVPNVVGMTAEKANKALTDAGLNVKITGATIGSGAVVHSQSIPAGTVTSKGTVVSIEMRFAAAEGD”, the “soluble fraction (log2)” value is -0.193.

Consider “HMDSYSILGIEKESSMEDIEKAYIDKISKIKKEVKNEKNAAAFEAVLTKAYNDILSQKENISEEQELAE”, for which the “soluble fraction (log2)” value was found to be 0.22.

Regarding “HMDTAGSVAIVSKSVIENGFGEIKYKGTYFKAQSDVYIPKDQMVKVIGKGDEQGSFLIVEKLN”, the “soluble fraction (log2)” value is -0.0172.

Regarding “HMDTIASESVRNRIEELISNENPKKPLSDQALVKMLQEFDIKIARRTVAKYREMLKIPPSSKRKQV”, the “soluble fraction (log2)” value worked out at 0.0429.

“HMDTIGSKVLAFLAGNLLDPTPFNYRFGYLYLNRTSKVIVEETDTYIDSGMRMTQEAVAEIMQKFAQ”: the “soluble fraction (log2)” value is -2.74.

Consider “HMDTITMAGERYAVSDLEKVSGDIFEKAFGFEIDPKTADAKDVLPTMPKSDVDLFKKLSGIKP”, for which the “soluble fraction (log2)” value was -0.0953.

As to “HMDTIYPFNPNFIDDYKGYVLGLNTNEIDRLLKYRSKGNWINSAEDFKKVTGIDDALLNKLSKSFKFPDWL”, the “soluble fraction (log2)” value was -0.991.

As for “HMDTLRPLGRYQNVHLTKQELTALQSEFSDWSERIERLSSYMASTGRKYQNHAATIRLWAEKDK”, the “soluble fraction (log2)” value stood at 0.161.

Take “HMDTMINLIGLNLKKAKKELSNLGVNVKKVRYKKSSVYDEGVVIDQSIEAGRNIKNGDFITITVSSGKA”: the “soluble fraction (log2)” value was -0.0745.

Regarding “HMDTNEPFAQLQLRFTDPIQYDYEVIRPVVLFSQSVTDRSDETEMPRTTVREKARQFVTEGMLGLVDK”, the “soluble fraction (log2)” value was -0.216.

Regarding “HMDTNTIIGLRIKALRTEKKYTLKYLSENSGLSIGFLSQLERGMTSVAIDSLDKISKVLDVELSSFFN”, the “soluble fraction (log2)” value is -0.65.

“HMDTPMQEAVLQRLRDKVAQAAAGSKLPTVRQLIADYGVGQHVIQAALEKLRTEGLITSHVGKGTFVG”: the “soluble fraction (log2)” value was 0.142.

Turning to “HMDTPMYMAIIEEVRFQIANEILKEGEQLPSIRNLAKTLKVSVITVKRAYKELEEAGYITTIPAKGSKVS”, the “soluble fraction (log2)” value is -0.167.

In the case of “HMDTQKYDLNDDGRFDVQDVTYLQIKIAGDGELTDNQKKIADYNNDGKIDVQDVTSAQMLIS”, the “soluble fraction (log2)” value was -0.724.

On to “HMDTSADEVKQLIASFVEQEDKRKPLSDQKIVELLAEKEQKISRRTVAKYRDALNIPSSSKRKRF”, for which the “soluble fraction (log2)” value is -0.141.

Turning to “HMDTSISHLVGRTGEAVTDLRPAGTVMIDGELYDARATEGFIEKGEIVKAIKYQYGQLNVRRVSK”, the “soluble fraction (log2)” value was found to be 0.149.

Consider “HMDTVSYSTLLRDIDAKEIKQLDLVPGRREVRVQYNDGRRVTVPVFANDNQILRAAESSGTPLTVV”, for which the “soluble fraction (log2)” value turned out to be 0.0175.

For “HMDVADITGTRKAAILLLTMDEELSKELLKEFERHEIEAIGKEIANIKYIPENIVKQVHSEFLKNINKS”, the “soluble fraction (log2)” value is -0.752.

As for “HMDVFTAKTASHIQELREKLGQQAVFGRSDVQNALGLKATRSSALLREMAEHGIIEPVTGYGKGRYHFRS”, the “soluble fraction (log2)” value came out at 0.361.

“HMDVIDDAQAMEIALEDAGLSMDDLDRYELELHTKRSELVYSIELKSGTEEYEYDLRAADGTILKRDTDF”: the “soluble fraction (log2)” value is -0.799.

With “HMDVLDVADNVNDDMSFADAFAAARSEVGAGGIFYWHGKAYGTYYENEWAGMSEEDKADYWDAVARTTS”, the “soluble fraction (log2)” value is -0.779.

Turning to “HMDVLSPEEWIEFRTAYNNNRYISQYGSKGATIEDDYATRLAMIGGKESYYFLNDPRWTEPGYGNLK”, the “soluble fraction (log2)” value was -1.45.

With “HMDVMNEIQQKAFDIYIQSASLKNDFTPISERALAKKLHDMGLKSSMSAIGRWKKKFGWVQSLQNKVTLA”, the “soluble fraction (log2)” value is -0.183.

Turning to “HMDVNKDLLGETLEKAKSYKADDWRKASYEALQKAIVEAEAVYKDEEADQVAVDRKVAALNKAINNLEAKG”, the “soluble fraction (log2)” value was found to be 0.241.

With “HMDVNPETLSYYIERADISLDELRTSVKGIDLFLTGEKQPTFNQISNIAKKLNIPTGLLLINKPIEI”, the “soluble fraction (log2)” value is -1.37.

As to “HMDVNSRIRQFLKKMKITVQTFESSIGKTNGYIAHTKSPTAGVLAEIAKVYPDLNLDWLITGEGEMLKN”, the “soluble fraction (log2)” value was -0.0635.

With “HMDVPTSSITEVKKSPMDVFAQARKAETGVYIFNREKIAGVMLTKEQYEALVEELNTLRDTL”, the “soluble fraction (log2)” value was -1.24.

On to “HMDVQEILGALSPDEKAAIGQLTSGEKHIDQIIAATRLPAARITSALTLLQIKGYVRALPGKRFSLTEKQ”, for which the “soluble fraction (log2)” value is ≥ 0.43.

With “HMDVQPTTTKTMFYTVQQGETLFSISRKFGISVEEITKKNPLASSGLTVGMELLLPEKKEINSTIQS”, the “soluble fraction (log2)” value is -0.0195.

On to “HMDVSEITTIKWIIKETKLGINEKILIYVNSKNFTVETLMEGFEIMSKYLVENVSSDKIVYIKN”, for which the “soluble fraction (log2)” value amounted to 0.22.

In the case of “HMDVTDRLARRLQGLRSAQGLSLDALAARSGVSRSNISLIERGQSSPTATVLDKLSAALGVTLAALFEEP”, the “soluble fraction (log2)” value is 0.00664.

As to “HMDWVAYGAELRRRRLLAGWTVAELSRRINLSGMTIHQIEKGRGRLRPSELTLAKLAAALGMPTP”, the “soluble fraction (log2)” value was ≥ 0.43.

With “HMDYEVPEELEEKFSENPQFKEAFDNLTPGRQHQYIYHISQAKRSQTRINRIEKYYEHILNGKGMQD”, the “soluble fraction (log2)” value amounted to 0.416.

In the case of “HMDYGTATASAILYLEKIDPENPYLLLAKDTITTNPKMSVNFALKGIIESKKGEKEENLNKALEIMSSL”, the “soluble fraction (log2)” value stood at 0.0949.

Consider “HMDYKSNLQEMVQTTKKSVTYELVKEEGPAHDRTFTMNVIVDGIVLGTGTAKSKKEAEQEAAHQALEKKA”, for which the “soluble fraction (log2)” value was -0.0453.

Consider “HMDYTGIPQSLLDLMKKDNIMPMQIQRAVAERNYYPVDTPISNYDPMFIEAKLVGAWDQVLNVISHLDLP”, for which the “soluble fraction (log2)” value was -1.51.
